In the nanobody polyreactivity screen of Harvey et al. (2022):

Test: yeast display, Sf9 membrane polyspecificity reagent, FACS + sequencing; frameworks hold sequencing errors
Outline: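 Genes from sorted yeast were amplified by colony PCR, read by MiSeq 2 × 250 sequencing and filtered on CDR length. These cells carried a synthetic nanobody library in Saccharomyces cerevisiae BJ5465 and were sorted by FACS into low and high (top ~1%) gates on anti-HA and streptavidin fluorescence. Polyreactivity is labelled according to the gate of origin.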

Row | Sequence | polyreactivity (PSR sort gate)
1 | QVQLVESGGGLVQAGGSLRKSCAASGSIFADKAMGWYRQAPGKERELVATISAPDGSTYYADYVKGRFTISGDNAKNTVYLQMNSLKPEDTAVYYCAASGYYILSWRYDYWGQGTQVTVSS | low polyreactivity
2 | QVQLVESGGGLVQAGGSLRLSCAASGRTLGYNAMGWYSQAPGKEMDLVAAISYGGGGTYYADSVKGRCTISRDNAKNTVYLQMNSLKPEDTAVYYCAADYWYGAGLPHGTEFDYWGQGTQVTVSS | low polyreactivity
3 | QVQLVESGGGLVQAGGSLRLSCAASGRTIIRNTMGWYRQAPGKERELVARISYGGGRTYYADSVKGRFTISRDNAKNTVYLQMNSLKPEDTAVYYCAKVTPPFWGGYWYNYWGQGTQVTVSS | high polyreactivity
4 | QVQLVESGGGLVQAGGSLRLSCAASGSTFYKYAMGWYRQAPGKERELVASITWSGTSTYYADSVKGRFTISRDKAKNTVYLQMNSLKPEDTAVYYCNAGLESYYWGYTWEFDYWGQGTQVTVSS | low polyreactivity
5 | QVQLVESGGGLVQAGGSLRLRCAASGSTFYLNAQGWYRQATGKEREFVAAITVSGGSTYYADSVKARFTISRDNAKNTVYLKMNSLKPEDTAVYYCARELLSPTYQRWYYYWGQGTQVTVSS | low polyreactivity
6 | QVQLVESGGGLVQAGGSLRLSCASSGFIFRYYAMGWYRQAPGKERELVAAISWRGDSTSYADSVKGRFTISRDNAKYTVYLQMNSLKPEDTAVYYCAAGRYLAYLYWGRYEYYYWGQGTQVTVSS | low polyreactivity
7 | QVQLVESGGGLVQAGGSLRLSCAASAIIFRFYAMGWYRQAPGKERELVPAISSGGSTYYADSVKGRFTISRDNAKNTVYLQMNSLKPEDTAVYYCNARVRYKRTGRYGYWGQGTQVTVSS | high polyreactivity
8 | QVQLVESGGGLVQAGGSLRLSCAASGSILYRNAMGWYRQAPGKERELVAAITYSGARTYYADSVKGRFTISRDNAKNSVYLQMNSLKPEDTAVYYCAATAAGYWYSAYDYWGQGTQVTVSS | low polyreactivity
9 | RVQLGESGGGLVQAGGSLRLSCAASGRTFVRYAMGWYRQAPGKERELVAAISYRGASTFYADSVKGRFTISRDNAKNTVYLQMNSLNPEDTAVYSCATDPRIRYQGNPYDYWGQGTQVTVSS | high polyreactivity
10 | QVHLVDSGGGLVQAGCSLPLSCAASGRTFLAYAMGWYRQEPGKERQLVAAISGSGGRSYYADSVKGRFTISRDNAMNTVYLQMNSLKPEDTAVYYCAANVVRWWGDGDYWGQGTQVTVSS | high polyreactivity
11 | QVQLVESGGGLVQAGGSLRLSCAASGLTFYSNAMGWYRQAPGKERELVARISTGGSTYADSVKGRFTISRDNAKNTVYLQMNSLKPVDTAVYYCAVDGWDDTYFRQDMDYWGQGTQVTVSS | low polyreactivity
12 | QVQLVESGGGLVQAGGSLRLSCAASGRTFYDYAMGWYRQAPGKEREFVARITYSGGGTYYADSVKGRFTISRDNAKHTVYLQMNSLKPEDTAVYYCARPFNRYLGLTRNGYTSDYWGQGTQVTVSS | high polyreactivity
13 | QVQLVESGGGLVQAGGSLRLICAASGTISSLNTMGWYRQAPVKERELVASITWSGGSTYADSVKGRFTISRDNAKNTVYLQMNSLKPEDTAVYYCAKGVWFSRRRYGYWGQGTQVTVSS | high polyreactivity
14 | QVQLVESGGGLVQAGGSLRLSCAASGLTFDDYAMGWYRQAPGKERELVAAINWSGSNTYYADSVKGRFTISRDNAKNTVYLQMNSLKPEDTAVYYCATYSRIFKWEYYYWGQGTQVTVSS | high polyreactivity
15 | QVQLVESGGGLVQAGGSLRLSCAASGFTFGRYGMGWYRQAPGKDREFVAAITGRTGTTYYADSVKGRFTISRDNAKNTVYLQMNSLKPEDTAVYYCAARGQYRSSRYPYYHWGQGTQVTVSS | high polyreactivity
16 | QVQLVESGGGLVQAGGSLRLSCAASGSTIPGNAMGWYRQAHGKERELVASISGGGDSTYYADSVKGRFTISRDNAKNTVYLQMKSLKPEDTAVYYCAADYRQEPGYTGYYYLGQGTQVTVSS | low polyreactivity
17 | QVQLVESGGGLVQAGGSLRLSCAASGRTFGTNTMGWYRQAPGKERELVAAIRRGGGTNYADSVKGRFTISRDNAKNTVYLQMNSLKPEDTAVYYCAAVRWNTGVGYYYWGQGTQVTVSS | high polyreactivity
18 | QVQLVESGGGLVQAGGSLRLSCAASGITFDYYGMGWYRQAPGKEGELVASITSGGSTNYADSVNGRFTISRDNAKNTVYLQMNSLKPEDTAVYYCNAEFWEVSPDRRDYDYWGQGTQVTVSS | low polyreactivity
19 | QVQHVESGGGLVQAGGSLRLSCAASGLTFTYYVKGCYRQAPGKERELVAAITVSGGSTYYADSVKGRFTISRDNAKNTVYLQMNSLKPEDTAVYYCAADAYSGYSDYYWGQGTQVTVSS | low polyreactivity
20 | QVQLVESGGGLVQAGGSLRLSCAASGFTFSDYAMGWYRQAPGKERELVAAISSSGGSTYYADSVKGRFTISRDNAKNTVYLQMNSLKPEDNAVYYCAASSYSFRYRYDTWWYYYWGQGTQVTVSS | high polyreactivity
21 | QVQLVESGGGLVQAGGSLRLSCAASGIIFRPYAMGWYRQAPGTEMELVAAITGSGVSTYYADSVKGRFTISRDNAKNTVYLQMNSLKPEDTAVYYCAKRYNRGYHRYDYWGQGTQVTVSS | low polyreactivity
22 | QVQHVESGGGLVQAGGSLRLSCAASGLILVYYAMGWYRQAPGKERELVAAITPGGSTKYADSVKGRFTISRDNAKNTVYLQMNSLKPEDTAVYYCAVDGDCHEPGNYIYEYDYWGQGTQVTVSS | low polyreactivity

Row | Sequence | polyreactivity (PSR sort gate)
23 | QFQLVESGGGLVQAGGSLRLSCAASGFNFGWYDMGWYRQAPGKERELVASISWSGSSTYYADSVKGRFTISRDNAKNTVYLQMNSLKPEDTAVYYCATPYWRRYDYWGQGTQVTVSS | high polyreactivity
24 | QVQLVESGGGLVQAGGSLRLSCAASGIIFVTNDMGWYRQAPGKERELVATITWSGGSTYYADSVKGRFTISRDTAKNTVYLQMNSLKPEDTAVYYCAAEKDAHKEDYWGQGSQVTVSS | low polyreactivity
25 | QDQLVESRGGLVQAGGSLRLSCAASGLIFPVYAMGWYRQAPRKEREFVASIWRGGTTYYADSVKGRFTISRDNAKNTVYLQMISLKPEDTAVYYCAAVVYSRGYYWGQGTQVTVSS | high polyreactivity
26 | QVQLVESGGGLVQAGGSLRLSCAASGFTIQFYTMGWYRQAPGKERELVAAISYNGDSTYYADSVKGRFTISRDNAKNTVYLQMNSLKPEDTAVYYCNTDLGTIYYYGYDYWGQGTQVTVSS | high polyreactivity
27 | QVQFVESGGGLVQARCSLRLSCAASGFIFGVYAMGWYRQAPGKERELVAAINSGGGSTYYADSVKGRFTISRDNAKNTVYLQMNSLKPEDTAVYYCAVRYKSWYGFNYWGQGTQVTVSS | high polyreactivity
28 | QVQRVESGGGLVQAGGSLRLSCAASGSTLVYNDMGWYRPAPGKEREFVAAIRSNDGSTYYADSVKGRFTISRDNAKNTVYLQMNSLKPEDTAVYYCNKDVWDGYDWPEFDYSGQGTQVTVSS | low polyreactivity
29 | QVQLVESGGGLVQAGGSLRLSCAASGLIFLYAMGWYRQAPGKERELVAAISNGGSTYYADSVKGRFTISRDNAKNTVYLQMYSLKPEDTAVYYCAVYYPGKYGYWGQGTQVTVSS | high polyreactivity
30 | QVQLVESGGGLVQAGGSLRLSCAASGSTFYRNAMGWYRQAPGKERELVAAITSRGTRTFYADSVKGRFTISRDNAKNTVYLQMNSLKPEDTAVYYCAVTYQAEDEYDYWGQGTQVTVSS | low polyreactivity
31 | QVQLVESGGGLVQAGGSLRLSCAASGSTFYINTMGWYRQAPGKEREFVAAITWSGGSTYYADSVKGRFTISRDNAKNTVYLQMNSLKPEDTAVYYCAADLYVGDMDYWGQGTQVTVAS | low polyreactivity
32 | QVQLVESGGGLVQAGGSLRLSCAASGSIFGYYTMGWYRQAPGKERELVAGITSTGNTNYADSVKGRFTISRDNAKNTVYLQMNSLKPEDTAVYYCAADSESTWDYGWELEVGYDYWGQGTQVTVSS | low polyreactivity
33 | QVQLVESGGGLVQAGGSLRLSCAASGSTFDHYDMGWSIPAPGKERELVAAISYSGSTTVYADSVKGRFTISRDNAMNTVYLQMNSLKPEDTAVYYCAASGDVIQSPMDYWGQGTQVTVSS | low polyreactivity
34 | QVQLVESGGGLLQAGGSLRLSCAASGGMFKYNAMGWYRQAPRKARELVPAINYSGGRTYYADSVKGRFTISRDNAKNTVYLQMTSLKPEDTAVDYCNALTRGHTGQPYTYDYWGQGTQVTVSS | high polyreactivity
35 | QVQLVESGGGLVQAGGSLRLSCAASGFIFWAYDMGWYRQAPGKERELVAGIDWSGGSTYYADSVKGRFTISRDNAKNTVYLQMNSLKPEDTAVYYCAADRLLYGGGREYWGQGTQVTVSS | high polyreactivity
36 | QVQLVESGGGLVQAGGSLRLSCAASGSIFKYNPMGWDRQAPGKERELVAAITYRGASTYYADSVKGRFTISRDNAKNTVYLQMNSLKPEDTAVYYCNAKVRKSRFYYWGQGTQVTVSS | high polyreactivity
37 | QVQLVESGGGLVQAGGSLRLSCAASGRTFQRYAMGWYRQAPGKERELVAAITSRGGSTYYADSVKGRFTISRDNAKNTVYLQMNSLKPEDTAVYYCNARSRRTHSEPQSEMDYWGQGTQVTVSS | high polyreactivity
38 | QVQLVESRGGLVQAGGSLRLSCAASGITFTIYAMGWYRQAPGKERELVAAITWTSDITHYADSVKGRFTISRDNAKNTVYLQMISLKPEDTAVYYCAATTWDEYDYWGQGTQVTVSS | high polyreactivity
39 | QVQLEESGGGVVQAGGSLRLSCAASGGTFSRYAMGWYRQATGKERELVAAITRSGASTFYADSVKGRFTISRDNAKNTVYLQMNSLKPEDTAVYYCAADTYVYNEYDYWGQGTQVTVSS | high polyreactivity
40 | QVQLVESGGGLVQAGGSLRLSCAASGSTFLRNVMGWYRQAPGKERELVAAISSRGGSTHYADSVKGRFTISRDNAKNTDYLQMNSLKPEDTAVYYCNAERTAAQYVRAAYDYWGQGTQVTVSS | low polyreactivity
41 | KVQLVESGGGLVQAGGSLRISCAASGFIFVDYAMGWYRQAPGKERELVAAISSSGSTTYADSVKGRFTISRDNAKNIVYLQMNSLKPEDTAVYYCNADAEVVPGEYDYWGQGTQVTVSS | low polyreactivity
42 | QVQLVESGGGLVQAGGSLRLSCAASGRTFDSYTMGWYRQAPGKERELVAAIRSSGGRTYADSVKGRFTISRDNAKNTVYLQMNSLKPEDTAVYYCAAARSYWAKYYYWGQGTQVTVSS | high polyreactivity
43 | QVQLVESGGGLVQAGGSLRLRCAASGRTFSAYAMGWYRQAPGKERELVAAISRRGGSTYYADSVKWRFTISRDNAKNTVYFQMNSLKPSDTAVYYCAADVYKQYGFYYWGQVTQVTVSS | high polyreactivity
